# Assay: yeast display, Sf9 membrane polyspecificity reagent, FACS + sequencing; frameworks hold sequencing errors
# How it was run: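 Polyreactivity labels are assigned by the sorting gate from which each nanobody was recovered. The gates were low and high (top ~1%), set on anti-HA fluorescence for expression and streptavidin fluorescence for reagent binding. Before sorting, galactose-induced (36–48 hours) yeast display cells were stained for 1 hour at 4 °C with 10% biotinylated, detergent-solubilized Sf9 membrane reagent.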
row,Sequence,polyreactivity (PSR sort gate)
1,QDQLVESGGGLVQAGGSLRLSCADYGNLVYNAKGWSRQAPGKERELVAAISARGGRTYYADSVKGRFTISRDNAKNTVYLQMNSLNPEDTAVYYCAARSYRLDSYYWGQGTQVSVSS,high polyreactivity
2,QVQLVESGGGLVQAGGSLRLSCAASGSIFYVYVMGWYRQAPGKERELVAAIDTGGGDTYYADSVKGRFTISRDNAKNTVYLQMNSLKPEDTAVYYCSTSGPQYYSRNFDYWGQGTQVTVSS,low polyreactivity
3,QVQLVESGGGLVQAGGSLRLSCAASGSIFKYYAMGWYRQAPGKERELVAAISSSGGSTYYADSVKWRFTISRDNAKNTVYLQMNSLKPEDTAVYYCNTPYIWKNYDYWGQGTQVTVSS,high polyreactivity
4,QVHLVESGGGLVQAGGSLRLSWAASGRNFTRYAMGWYSQAPGKERELVASIRHSGGSTYYADSVKGRFTISRDNAKKTVYLLINSLKPEDTADFYCAARGKKGTRYKYNYWGQRTQVTVSS,high polyreactivity
5,QVQLVESGGGLVQAGGSLRLSCAASGSIFTLYARGWYREAPGKERELVAAITWTGGSTYYADSVKGRFTISRDNAKNTVYLQMNSLKPEDTAVYYCATDAYWQSNGAFYYVARHGGYWGQGTQVTVSS,low polyreactivity
6,QVQLVDSGGGLVQAGGSLSLSCAASGYTFDTNAMGWYRQAPGKERELVAAIDFSGGTTYADSVKGRFTISRDNAKNTVYLQMNSLKPEDTAVYYCSADHSGGSRYDYWGQGTQVTVSS,low polyreactivity
7,QVQLVESGGGLVQAGGSLRLSCAASGFIFVSYAMGWYRQAPGKERELVAAIDRIGGITYYADSVKGRFTIARDIAKNTVYLQMNSLKPEDTAVYYCAAAARYATVRVGREYYWGQGTQVTVSS,low polyreactivity
8,QVQLVESGGGLVQAGGSLRLSCAASGFIFANYGMGWYRQAPGKERELVAAISSGGRTYYADSVKARFTISRDNAKNTVYFQMNSLQPEDTAVYYCAAVVRRYNAEDYWGQGTQVTVSS,high polyreactivity
9,QDQLVESGGGLVQAGGSLRLSCAASGFIFYDNAMGWYRQAPGKERELVAAISAIGGSTYYADSVKGRFTISRDNAKNTVYLQMNSLKPEDTAVYYCAVPEILDPKYQNDYWGQGTQVTVSS,low polyreactivity
10,QVQLVESGGGLVQAGGSLRLSCAASGFIFVRYAMGWYRQAPGKEREFVAAISGGAGSTYYADSVKGRFTISRDNAKNTVYLQMNSLKPEDTAVYYCNRVRSLRYGYWGQGTQVTVSS,high polyreactivity
11,QVQLVESGGGLVQAGGSLRLSCAASGFIFTDNAMGWYRQAPGKERELVAAISKNGGSTYYADSVKGRFTISRDNAKNTVYLQMNSLKQEDTAVYYCNTRRKNFVKSSQVEYWGQGTQVTVSS,high polyreactivity
12,QVQLVESGGGLVQAGGSLSLSCAASGINFWRYAMGWYRPAPGKERELVAGITSRGGSTYYADSVKGRFTISRDNAKNTVYLQMNSLKPEDTAVYYCNADWYGQLWWGVDYWGQGTQVTVSS,high polyreactivity
13,QVQLVESGGGLVQAGGSLRLSCAASGRIYFNAMGWYRQAPGKERELLADISWIGGSTYYADSVKGRFTISRDNGKNTVYLQMNRLKPEYTAVYYCAAVFLSWWDSYDFWGQGTQVTVSS,high polyreactivity
14,QVQLVESGGGLVQAGGSLRLSCAASGSTFNSNAMGWYRQAPGKERELVAAINYSGGSTYYADSVKGRFTISRDNAKNTVYLQMNSLKPEDTAVYYCNKVYFDHYLSRVYYWGQVTQVTVSS,high polyreactivity
15,QVQLVESVGGLDQAGGSLRLTCAASVSIFRNYAMGWYRQAPGKERELVASIRYSGGRTNYADSVKGRFTISRDNAKNTVYVPMNSLTPEDTAVYYCAAATHYWYFYSFKDKSGFRGYYWGQGTHVTVSS,high polyreactivity
16,QVQLVDSGGGLVQAGGSLRLSCAASGSTFESYAMGWDRQAPGKERELVAAISTNGGRTRYADSVKGRFTISRDNAKNTVYLQMNSLKPVDTAVYYCATYVRGVYASSGYDYWGQGTQVTVSS,high polyreactivity
17,QVQLEESGGGLVQAGGSLRLSCAAYGSTFSYAMGWYRQAPGKERELVAAITIGGRTSYADSVKGRFTISRDNAKNTVYLQMSSLKPEDTAVYYCAADDLPGMDYWGQGTQVTVSS,low polyreactivity
18,QVQLVESGGGLVQAGGSLRLSCAASGSIFVLYAMGWSRQAPGKERELVAAITTGGGTNYADSVKGRFTISRDNAKNTVYLQMNSLKPEDTAVYYCAAADSTWFDWGNYWYYYWGQGTQVTVSS,low polyreactivity
19,QVQLVESGGGLVQAGGSLRLSCAASGFIFDQYAMGWYRQAPGKERELVAAISSGGRTYYADSVKGRFTISRDNAKNTVYLQMNSLKPEDTAVYYCAAKSWTDSRVTGYWGQGTQVTVSS,high polyreactivity
20,QVQLVESGGGLVQAGGSLRLSCAASGGIFVQYTMGWYRQAPGKERELVAAISTGGSTYYADSVKGRFTISRDNAKNTVYLQMNSLKPEDTAVYYCAVVYRSQYSRYTSQWKEYYWGQGTQVTVSS,low polyreactivity
21,QVQLVESGGGLVQAGGSLRLICAASGRTSGGNGMGWYRQAPGKERELVAAITWDGDSTYADSVKGRFTISRDNAKNTDYFQMNSLKPEDTAVYYCAAGVYQSDYYYWGQGTQVTVSS,low polyreactivity

row,Sequence,polyreactivity (PSR sort gate)
1,QVQLQESGGGLVQVGGSQRLSCAASGNIFYNYAMGRYRHAQGKEHEFDATINHGTSINYADSVKGRFTISRDNAKNTVYLQMNSLKPEDTAVYYCAADLSWTDNLFYWGQGTQVTVSS,low polyreactivity
2,QVQLVESGGGLVQAGGSLRLSCAASGSIFRYYAMGWYRQAPGKERELVAAISWDGGTTYYADSVKGRFTISRDNAKNTVYLQMNSLKPEDPAVYYCNVEFPLSSYGYDYWGQGTQVTVSS,low polyreactivity
3,QVQLVESGGGLVQAGGSLRLSCAASGRTFGGNTMGWYREAPGKERELVAAISRRGGSTYYADSVKGRFTISRDNAKNTVYLQMNSLKPEDTAVYYCNKDGPSYSSYDYWGQGTQVTVSS,low polyreactivity
4,QVQLVESGGGLVQAGGSLRLSCAASGSIFYFYTMGWYRQAPGKERELVASITYSGGRTYYADSVKGRFTISRDNAKNSVYLQMNSLKPEDTAVYYCAVRGYRRYWGQGTQVTVSS,high polyreactivity
5,QVQLVESGGGLVQAGGSLRLSCAASGLTFNAYAMGWYRQAPGKERELVADITTSDGSTFYADSVKGRFTISRDNAKNTVYLQMNSLKPEDTAVYYCNADAYGWYSGPWFKWLLWYDYWGQGTQVTVSS,low polyreactivity
6,QVQLVESGGGLVQAGGSLRLSCAASGRTFRNAMGWYRQAPGKEREFVATITWSGGSTYYADSVKGRFTISRDNAKNTVYLQMNSLKPEDTAVYYCAAEGRLWDWQRYDYWGQGTQVTVSS,low polyreactivity
7,QVQLVESGGGLVQAGGSLRLSCAASGNIFRANPMGWYRQAPGKERELVASITVSGGSTNYADSVKGRFTISRDNAKNTVYLQMNSLKPEDTAVYYCAKTLTRSVKFSTVLLGPTPDYYWGQGTQVTVSS,high polyreactivity
8,QVQLVDSAGGLVQAGGSLRLSCAASGLNYAIYAMGWYREAPGKERELVAAIRWSGASTYADSVKGRFTISRDNAKNTVYLQMNSLKPEDTAVYYCAADDLLDYDYWGQGTQVTVSS,low polyreactivity
9,QVQLVESGGGLVQAGGSLRLSCAASGRIFSFYVMGWYRQAPGKERELVAAISLSGGSTYYADSVKGRFTISRDNAMNTVYLQMNSLKPEDTAVYYCNAVLYARQRDRWARYDYWGQGTQVTVSS,high polyreactivity
10,QVQLVESGGGLVQAGGSLRLSCAASGRTFWPNVMGWYRQAPGKERELVAAITWGDASTYYADSVKGRFTISRDNAKNTVYLQMNSLKPEDTAVYYCAASDYGRTYDYWGQGTQVTVSS,low polyreactivity
11,QVQLVESGGGLVQAGGSLRLSCAASGSTFDINAMGWYRQAPGKERELVASITFCGGSTYYADSVKGRFTISRDNAKNTVYLEMNSLKPEDTAVYYCAADSSGEYPGGYWGQGTQVTVSS,low polyreactivity
12,QVQLVESGGGLVQAGGSLRLSCAASGSIFGYYPMGWYRQAPGKERELVAAITSGGNTYYADSVKGRFTISRDNAKNTVYLQMNSLKPEDTAVYYCNAVWRTRDYDYWGQGTQVTVSS,low polyreactivity
13,QVQLVESGGGLVQAGGSLRLSCAASGRTFPYNAMGWYRQAPGKERELVAAITQSAGRTYYADSVKGRFTISRDTAKYTVYFQMNSLKPEDTAVYYCNTVTVAYGYTRLYAQYYYWGQGTQVTVSS,high polyreactivity
14,QVQLVESGGGLVQAGGSLRLSCAASGRTFYLNAMGWYRQAPGKEREFVARITWSGGSTYYADSVKGRFTISRDNAKNTVYLQMNSLKPEDTAVYYCIRLSSYHMDYWGQGTQVTVSS,high polyreactivity
15,QVQLVESGGGLVQAGGSLRLSCAASGRIFSYNAMGWYRQAPGKERELVAAITFSGGGTYYADSVKGRFTISRDNAKNTVYLQMNSLKPEDTAVYYCAADVPPKYRHRYNLYDYWGQGTQVTVSS,low polyreactivity
16,QVQLVESGGVLVQAGGSLRLSCAASGSIFANNAMGWYRQAPGKERELVATIRSGGTTNYADSVKGRFTISRDNAKNTVYLQMNSLKPEDTAVYYCAVDYVVYADGPLDYWGQGTQVTVSS,low polyreactivity
17,QVQLVDSGGGLVQAGGSLRLSCAASGFTFNGYAMGWSRPAPGKEREFVAAISSSGGSTYYADSVKGRFTISRDNAKNTVYLQMNSLKPDDTAVYYCNAVGWRKKYDYWGQGTQVTVSS,high polyreactivity
18,QVQLVESGGGLVQAGGSLRLSCAASGLIFGGNAMGWYRQAPGKERELVAAITYRTGSTYYADSVKGRFTISRDNAKITVYLQMNSLKPEDTAVYDCAAAVSLGYPVAFYYWGQGTQVTVSS,low polyreactivity
19,QVQLVESGGGLVQAGGSLRLSCAASGSILYINAMGWYRQAPGKERELVAAITYSGGSTYYADSVKGRFTISRDNAKNTVYLQMNSLKPEDTAVYYCAADAVVAGRYDGHDYWGQGTQVTVSS,low polyreactivity
20,QVQLVESGGGLVQAGGSLRLSCAASGGIFYSNGMGWYRQAPGKERELVAAITGGDITDYADSVKGRFTISRDNAKNTVYLQMNSLKPEDTAVYFCAVESYPPDYGPRFGSWGQGTQVTVSS,low polyreactivity
